From patent US11653679B2, “High-purity steviol glycosides” (PureCircle Sdn Bhd, priority 2014, dated 2023)
Substitutions are numbered along the chain they refer to. Blank lines part the entries; values can stand above or below the molecule they belong to.

Tests used:
[1] = Heat and pH stability of reb M; format: physicochemical
[2] = Solubility of reb M in water and solvents; format: physicochemical
Procedure: Other properties of the pure reb M compound include a melting point of 249-250° C., and a specific rotation of [α]D^25−19.0° in 50% ethanol (C=1.0). The solubility of reb Min water is around 0.3%, and increases with an increase in temperature.
Reb M is soluble in diluted solutions of methanol, ethanol, n-propanol, and isopropanol. However, it is insoluble in acetone, benzene, chloroform, and ether.

[3] = Sweetness of reb M compared to a 10% sucrose solution
Text: The high purity reb M obtained in this invention, having a molecular weight of 1291.29, a molecular formula of C56H90O33, CAS registry number 1220616-44-3, and the structure presented in FIG. 1, is in the form of a white and odorless powder. The compound is about 200 times sweeter than sugar when compared to a 10% sucrose solution.

[4] = Directed evolution of UGT76G1, Rebaudioside D to Rebaudioside X, round 2 (Example 41); format: biochemical; conditions: baseline clone Round1-Var94 defined as 100%, 100 μL lysate, 0.5 mM Rebaudioside D, 30° C., pH 7.2
Procedure: Lysis was performed by addition of Bugbuster® Master mix (Novagen®) to the thawed cells and the lysate was recovered by centrifugation. Activity tests were performed with 100 μL of fresh lysate that was added to a solution of Rebaudioside D (final concentration 0.5 mM), MgCl2 (final concentration 3 mM) and UDP-Glucose (final concentration 2.5 mM) in 50 mM phosphate buffer pH 7.2.
The reaction was allowed to run at 30° C. and samples were taken after 2, 4, 7 and 24 h. to determine conversion and initial rate by HPLC (CAD detection) using the analytical method that was described above for the transformation of Rebaudioside D to Rebaudioside X. In parallel the experiments were performed with baseline clone, Round1-Var94. The conversion after 22 h. and initial rate for this baseline clone was defined as 100% and the normalized conversions and initial rates for the round 2 clones are depicted in the following table: […]

[5] = Directed evolution of UGT76G1, Rebaudioside D to Rebaudioside M, round 1 (Example 26); format: biochemical; conditions: 100 μL fresh lysate, 0.5 mM Rebaudioside D, 30° C., pH 7.2
Summary of the method: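 Cleared cell lysate (Bugbuster) incubated with 0.5 mM Rebaudioside D, 3 mM MgCl2 and 2.5 mM UDP-glucose in 50 mM phosphate pH 7.2 at 30 °C. Samples at 2, 4, 7 and 24 h analysed by HPLC-CAD for conversion and initial rate.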

[6] = Activity of UGT76G1_Sc for conversion of Rebaudioside D to Rebaudioside M (Example 35); format: biochemical; conditions: 21 h., based on initial concentration of Rebaudioside D
Procedure: UGT76G1_Sc was prepared according to EXAMPLE 34. Activity tests were performed at 2 mL scale with 200 μL of lysate for the transformation of Rebaudioside D using 0.5 mM of substrate, 2.5 mM of UDP-Glucose and 3 mM MgCl2 in 50 mM Sodium Phosphate buffer at pH 7.2. Samples were taken and analyzed by HPLC. The corresponding chromatogram is depicted in FIG. 64.

[7] = Catalytic reaction Rebaudioside A to Rebaudioside D with in-vitro produced UGT91D2 (Example 5); format: biochemical; conditions: after 120 h, in-vitro produced UGT91D2, 0.1 mM Rebaudioside A, 30° C.
Procedure: The total volume of the reaction was 0.5 mL with the following composition: 50 mM sodium phosphate buffer pH 7.2, 3 mM MgCl2, 3.8 mM UDP-glucose, 0.1 mM Rebaudioside A and 180 μL of in-vitro produced UGT91D2. The reactions were run at 30° C. on an orbitary shaker at 135 rpm. For each sample, 450 μl of reaction mixture was quenched with 45 μL of 2N H2SO4 and 405 μL of 60% MeOH. After centrifugation, the supernatant was analyzed by HPLC (CAD). HPLC indicated a 4.7% conversion of rebaudioside A to rebaudioside D after 120 h.

[8] = Transformation of Rubusoside to Stevioside with in-vivo preparations of UGT91D2 (Example 19); format: biochemical; conditions: per mL of lysate; 1 U transforms 1 μmol of substrate in 1 hour at 30° C. and pH 7.2
Procedure: Activity tests were performed at 5 mL scale with 1000 μL of lysate for the transformation of Rubusoside to Stevioside using 0.5 mM of substrate, 2.5 mM of UDP-Glucose and 3 mM MgCl2 in 50 mM Sodium Phosphate buffer at pH 7.2. Samples were taken and analyzed by HPLC.

heat and pH stability [1]: heat and pH-stable | solubility in acetone, benzene, chloroform, and ether [2]: insoluble | solubility in diluted solutions of methanol, ethanol, n-propanol, and isopropanol [2]: soluble | solubility in water ([2]; increases with an increase in temperature): around 0.3%
Molecule: C=C1C[C@@]23CC[C@H]4[C@@](C)(CCC[C@@]4(C)C(=O)O[C@@H]4O[C@H](CO)[C@@H](O)[C@H](O[C@@H]5O[C@H](CO)[C@@H](O)[C@H](O)[C@H]5O)[C@H]4O[C@@H]4O[C@H](CO)[C@@H](O)[C@H](O)[C@H]4O)[C@@H]2CC[C@]1(O[C@@H]1O[C@H](CO)[C@@H](O)[C@H](O[C@@H]2O[C@H](CO)[C@@H](O)[C@H](O)[C@H]2O)[C@H]1O[C@@H]1O[C@H](CO)[C@@H](O)[C@H](O)[C@H]1O)C3 [reb M, Rebaudioside M]
sweetness relative to sugar [3]: about 200 times sweeter than sugar

B1: UGT76G1var94: UGT76G1 variant, mutations Q266E_P272A_R334K_G348P_L379G (protein, UniProt Q6VAB4 1-458, looked up, variant Q266E P272A R334K G348P L379G)
UDP-glycosyltransferase 76G1: MENKTETTVRRRRRIILFPVPFQGHINPILQLANVLYSKGFSITIFHTNFNKPKTSNYPHFTFRFILDNDPQDERISNLPTHGPLAGMRIPIINEHGADELRRELELLMLASEEDEEVSCLITDALWYFAQSVADSLNLRRLVLMTSSLFNFHAHVSLPQFDELGYLDPDDKTRLEEQASGFPMLKVKDIKSAYSNWQILKEILGKMIKQTKASSGVIWNSFKELEESELETVIREIPAPSFLIPLPKHLTASSSSLLDHDRTVFEWLDQQAPSSVLYVSFGSTSEVDEKDFLEIARGLVDSKQSFLWVVRPGFVKGSTWVEPLPDGFLGERGKIVKWVPQQEVLAHPAIGAFWTHSGWNSTLESVCEGVPMIFSDFGGDQPLNARYMSDVLKVGVYLENGWERGEIANAIRRVMVDEEGEYIRQNARVLKQKADVSLMKGGSSYESLESLVSYISSL
Normalized conversion Reb D to Reb X after 22 h. [4]: 100% | Normalized initial rate (0-4 h) [4]: 100% | conversion Reb D to Reb M after 24 h [5]: 72.0% | initial rate [5]: 7.9E+07 Reb M area/min

B2: UGT76G1_Sc: UGT76G1 produced in S. cerevisiae, lysate (protein, UniProt Q6VAB4 1-458, looked up)
UDP-glycosyltransferase 76G1: B1 UDP-glycosyltransferase 76G1 with E266Q, A272P, K334R, P348G, G379L
modifications: S. cerevisiae lysate
Rebaudioside D conv. (reaction time) ([6]; 200 μL lysate, 0.5 mM substrate, 2.5 mM UDP-Glucose, pH 7.2): 85% (21 h.) | Rebaudioside M selectivity [6]: 100%

B3: UGT91D2: UDP-glucosyltransferase, Genbank accession no. ACE87855.1 (protein, UniProt B3VI56 1-473, looked up)
UDP-glycosyltransferase 91D2: MATSDSIVDDRKQLHVATFPWLAFGHILPYLQLSKLIAEKGHKVSFLSTTRNIQRLSSHISPLINVVQLTLPRVQELPEDAEATTDVHPEDIPYLKKASDGLQPEVTRFLEQHSPDWIIYDYTHYWLPSIAASLGISRAHFSVTTPWAIAYMGPSADAMINGSDGRTTVEDLTTPPKWFPFPTKVCWRKHDLARLVPYKAPGISDGYRMGLVLKGSDCLLSKCYHEFGTQWLPLLETLHQVPVVPVGLLPPEVPGDEKDETWVSIKKWLDGKQKGSVVYVALGSEVLVSQTEVVELALGLELSGLPFVWAYRKPKGPAKSDSVELPDGFVERTRDRGLVWTSWAPQLRILSHESVCGFLTHCGSGSIVEGLMFGHPLIMLPIFGDQPLNARLLEDKQVGIEIPRNEEDGCLTKESVARSLRSVVVEKEGEIYKANARELSKIYNDTKVEKEYVSQFVDYLEKNTRAVAIDHES
conversion of rebaudioside A to rebaudioside D [7]: 4.7%

B4: Example 18: UGT91D2 lysate using pET30a+ plasmid and ArcticExpress expression strain (protein, UniProt B3VI56 1-473, looked up)
UDP-glycosyltransferase 91D2: B3 UDP-glycosyltransferase 91D2
modifications: E. coli lysate
notes: UGT91D2 lysate using pET30a+ plasmid and ArcticExpress expression strain
Transformation activity Rubusoside to Stevioside [8]: 21 mU mL^−1

B5: Example 17: UGT91D2 lysate using pET30a+ plasmid and Tuner (DE3) expression strain (protein, UniProt B3VI56 1-473, looked up)
UDP-glycosyltransferase 91D2: B3 UDP-glycosyltransferase 91D2
modifications: E. coli lysate
notes: UGT91D2 lysate using pET30a+ plasmid and Tuner (DE3) expression strain
Transformation activity Rubusoside to Stevioside [8]: 28 mU mL^−1

B6: Example 15: UGT91D2 lysate using pMAL plasmid and BL21 expression strain (protein, UniProt B3VI56 1-473, looked up)
UDP-glycosyltransferase 91D2: B3 UDP-glycosyltransferase 91D2
modifications: MBP fusion from pMAL, E. coli lysate
notes: UGT91D2 lysate using pMAL plasmid and BL21 expression strain
Transformation activity Rubusoside to Stevioside [8]: 9 mU mL^−1
